Source: patent US20200040070A1 (CHEMOMAB, published 2020)

Tests used:
[1] = target: MCP3 (CCL7) (UniProt P80098 24-99); assay: SPR (Biacore T200), HCM101 immobilized on CM-1 chip, chemokine in solution; MCP3 (CCL7)
Method: (§1) The affinity constant of HCM101 was evaluated using Biacore T200. This method uses Surface Plasmon Resonance (SPR) electro-optical phenomenon to measure the binding constants and on/off rates between binding partners. HCM101 was immobilized on a surface of a CM-1 chip, and a solution of eotaxin 1 (CCL11)/MCP3 (CCL7) was passed over the surface. The changes in SPR angle were measured and enabled to determine the KD (equilibrium dissociation constant).
(§2) Biacore, an SPR based technology was used in order to examine the binding affinity of HCM101, generated by CHO cells, to other, non-CCL24 chemokines.

[2] = target: T1, Eotaxin 1 (CCL11) (human, UniProt P51671 24-97); assay: SPR (Biacore T200), HCM101 immobilized on CM-1 chip, chemokine in solution; Eotaxin 1 (CCL11)
T1 construct: also called human CCL11
T1 sequence (P51671 24-97 limits assumed): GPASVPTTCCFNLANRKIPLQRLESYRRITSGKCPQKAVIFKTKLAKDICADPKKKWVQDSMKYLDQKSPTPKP
Method: as §1, §2

Sequence of MCP3 (CCL7) (P80098 24-99 limits assumed): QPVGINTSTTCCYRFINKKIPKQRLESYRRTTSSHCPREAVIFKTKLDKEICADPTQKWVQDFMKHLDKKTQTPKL

B1: fully humanized anti CCL24 antibody HCM101 (antibody, V domains shown)
VH: QIQLVQSGPELKKPGASVKVSCRASGYPFTNSGMNWVKQAPGKGLKWMGWINTYNGEPTYTDDFKGRFAFSLETSASTAYLQINNLRNEDTATYFCASHSYGSSYAMDNWGQGTSVTVSS
VL: DIVLTQSPDSLAVSLGERATINCKASQSVDYDGDSYMNWYQQKPGQPPKLLIYVASNLKSGIPARFSGSGSGTDFTLTISSLQPEDFATYYCQQSNEEPWTFGGGTKVEIK
notes: also called humanized version of CM101
Work on B1 yielded a Kd [1] of 130 nM and a Kd [2] of 30 nM.
